In article PMC7367685, “Reconstitution reveals two paths of force transmission through the kinetochore” (eLife, 2020):

Key:
[1] = biological target: Cse4-NCP: nucleosome core particle of K. lactis 6XHis-H2A, K. lactis 6XHis-H2B, S. cerevisiae Cse4 and K. lactis 6XHis-H4, wrapped in 601 DNA (Kluyveromyces lactis | S. cerevisiae) (UniProt P36012); assay: optical trap force-ramp rupture assay; same beads and free proteins (10 nM each) as the attachment assay; bead on a growing microtubule tip, 1 pN preload, then a ramp of 0.25 pN/s until detachment; median rupture force of the whole chain; not single-molecule conditions; room temperature
[2] = biological target: Cse4-NCP: nucleosome core particle of K. lactis 6XHis-H2A, K. lactis 6XHis-H2B, S. cerevisiae Cse4 and K. lactis 6XHis-H4, wrapped in 601 DNA (Kluyveromyces lactis | S. cerevisiae) (UniProt P36012); assay: optical trap bead-microtubule attachment assay (self-assembly and microtubule binding); one His6-tagged subcomplex on anti-His5 polystyrene beads (10 nM on 3.5 pM beads), the other subcomplexes free at 10 nM each; the bead was brought to a single growing microtubule with the laser trap, and a bead whose contact did not persist with the laser off counted as a nonbinder; no external force; BRB80 growth buffer with 1 mM GTP, room temperature; in negative controls one subcomplex was omitted
[3] = biological target: T1, Ndc80c (Ndc80, Nuf2, Spc24-Flag, Spc25) (S. cerevisiae, UniProt P40460 1-691; P33895 1-451; Q04477 1-213; P40014 1-221); assay: optical trap bead-microtubule attachment assay (self-assembly and microtubule binding); one His6-tagged subcomplex on anti-His5 polystyrene beads (10 nM on 3.5 pM beads), the other subcomplexes free at 10 nM each; the bead was brought to a single growing microtubule with the laser trap, and a bead whose contact did not persist with the laser off counted as a nonbinder; no external force; BRB80 growth buffer with 1 …; details: both partners purified
T1 construct: Ndc80, S. cerevisiae; Nuf2, S. cerevisiae; Spc24, S. cerevisiae; Spc25, S. cerevisiae; also called Ndc80 complex; pJT048 with Ndc80/Nuf2; copies: + + +

[4] = biological target: T1, Ndc80c (Ndc80, Nuf2, Spc24-Flag, Spc25); assay: optical trap force-ramp rupture assay; same beads and free proteins (10 nM each) as the attachment assay; bead on a growing microtubule tip, 1 pN preload, then a ramp of 0.25 pN/s until detachment; median rupture force of the whole chain; not single-molecule conditions; room temperature; details: both partners purified

T1 sequence (P40460 whole entry, chain 1 of 4): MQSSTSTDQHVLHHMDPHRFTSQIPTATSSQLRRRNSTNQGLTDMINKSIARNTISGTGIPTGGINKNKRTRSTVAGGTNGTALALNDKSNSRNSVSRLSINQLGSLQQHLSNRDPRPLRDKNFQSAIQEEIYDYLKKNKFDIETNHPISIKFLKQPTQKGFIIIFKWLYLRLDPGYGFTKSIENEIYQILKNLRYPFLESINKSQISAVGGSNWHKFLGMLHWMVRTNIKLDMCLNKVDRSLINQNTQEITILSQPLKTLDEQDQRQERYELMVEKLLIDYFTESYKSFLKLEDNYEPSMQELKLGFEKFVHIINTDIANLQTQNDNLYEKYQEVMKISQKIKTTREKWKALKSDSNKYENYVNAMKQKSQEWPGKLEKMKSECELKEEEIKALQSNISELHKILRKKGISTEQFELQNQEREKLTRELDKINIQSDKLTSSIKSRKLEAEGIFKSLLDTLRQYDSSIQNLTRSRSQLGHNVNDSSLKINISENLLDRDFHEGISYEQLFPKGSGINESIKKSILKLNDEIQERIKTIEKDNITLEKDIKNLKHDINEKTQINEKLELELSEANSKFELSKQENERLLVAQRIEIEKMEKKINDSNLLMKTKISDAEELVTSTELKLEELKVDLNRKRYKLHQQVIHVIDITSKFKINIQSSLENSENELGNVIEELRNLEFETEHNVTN
T1 sequence (P33895 whole entry, chain 2 of 4): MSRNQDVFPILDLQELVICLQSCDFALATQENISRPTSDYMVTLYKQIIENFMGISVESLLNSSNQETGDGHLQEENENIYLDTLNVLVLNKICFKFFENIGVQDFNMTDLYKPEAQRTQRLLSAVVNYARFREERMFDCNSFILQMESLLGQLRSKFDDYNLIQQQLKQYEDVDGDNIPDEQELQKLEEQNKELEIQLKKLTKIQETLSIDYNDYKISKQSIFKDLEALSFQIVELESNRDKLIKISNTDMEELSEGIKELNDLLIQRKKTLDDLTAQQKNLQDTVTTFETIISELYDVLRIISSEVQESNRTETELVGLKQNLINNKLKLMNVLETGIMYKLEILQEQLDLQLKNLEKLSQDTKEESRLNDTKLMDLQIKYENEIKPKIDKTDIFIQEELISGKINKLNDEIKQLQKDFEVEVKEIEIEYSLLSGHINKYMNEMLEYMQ
T1 sequence (Q04477 whole entry, chain 3 of 4): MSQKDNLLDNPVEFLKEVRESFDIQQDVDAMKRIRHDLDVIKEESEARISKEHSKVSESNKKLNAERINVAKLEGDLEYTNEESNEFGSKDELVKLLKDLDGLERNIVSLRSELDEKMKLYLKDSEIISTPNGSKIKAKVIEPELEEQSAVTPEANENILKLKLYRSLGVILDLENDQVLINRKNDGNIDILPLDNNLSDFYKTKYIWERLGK
T1 sequence (P40014 whole entry, chain 4 of 4): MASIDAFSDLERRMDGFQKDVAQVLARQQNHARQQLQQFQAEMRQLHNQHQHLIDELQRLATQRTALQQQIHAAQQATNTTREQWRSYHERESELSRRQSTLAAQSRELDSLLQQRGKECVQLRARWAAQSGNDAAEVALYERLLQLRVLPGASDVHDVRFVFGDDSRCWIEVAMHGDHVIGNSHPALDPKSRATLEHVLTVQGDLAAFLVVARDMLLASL

For “Mif2-linker-(27-392)MBP (from UniProt P35201 1-549) (natural protein)”, the median rupture force of Cse4-NCP-based chains with both Mif2 and OA free (with 2D-MIND and Ndc80c) [1] was 4 pN, the median rupture force of the whole chain Cse4-NCP/Mif2/2D-MIND/Ndc80c [1] was 3.3 pN and the percent of beads that bound microtubules (Cse4-NCP beads with free Mif2, 2D-MIND and Ndc80c) [2] was 24%.

B1: MIND complex, wild type (Nsl1, FLAG-Dsn1, Mtw1, Nnf1) (complex, S. cerevisiae)
chain 1: MSQGQSKKLDVTVEQLRSIYHQFHDILEEKTDLHLPKKEYDDDAVRREVQIQLQEFLLSAMTMASKSLEVVNADTVGKTVKQLIMESQEKYMEPFDLDLNEQVRKMYQEWEDETVKVAQLRQTGPAKINEVYNNSKDEYLAQLDGRIGVLQARMMQQQSADHDDSTDDADDHINWEHIKQDYVASLNELYQTQQDLPKVRYNVEKVKRLMDFLEED
chain 2: MSLEPTQTVSGTPPMLHQRTHKQVYPLRMETIPILESDSKATLQSNEPTQKDEEETEYFENKQSVSNLSPDLKFKRHKNKHIQGFPTLGERLDNLQDIKKAKRVENFNSSAPIADDNHSGDATANATANATANATANVNASAMPAPYMPYYYYYHPMNAPTPAMIPYPGSPMHSIMPNSSLQPFYSQPTAAGGPDMTTPQNISSSQQLLPAPQLFPYGSFHQQQLQQPHYIQRTRERKKSIGSQRGRRLSMLASQANGGSTIISPHKDIPEEDFYTVVGNASFGKNLQIRQLFNWCLMRSLHKLELKAKNQEEEGELEHLTKKSKLESTKAETDYVDPKRLAMVIIKEFVDDLKKDHIAIDWEDEEKYEDEDEEKILDNTENYDDTELRQLFQENDDDDDDDDEVDYSEIQRSRRKFSERRKALPKEPKKLLPNSKNVENTKNLSILTSKVNAIKNEVKEWAVTLDTSRPDLEWQELTSFSSQPLEPLSDTEEPDLAIADVETKLETKVDELRYQSHILNSHSLALNEITNSKVNKLNIETMRKISSETDDDHSQVINPQQLLKGLSLSFSKKLDL
chain 3: MSAPTMRSTSILTEHLGYPPISLVDDIINAVNEIMYKCTAAMEKYLLSKSKIGEEDYGEEIKSGVAKLESLLENSVDKNFDKLELYVLRNVLRIPEEYLDANVFRLENQKDLVIVDENELKKSEEKLREKVNDVELAFKKNEMLLKRVTKVKRLLFTIRGFKQKLNELLKCKDDVQLQKILESLKPIDDTMTLLTDSLRKLYVDSESTSSTEEVEALLQRLKTNGKQNNKDFRTRYIDIRTNNVLRKLGLLGDKEDEKQSAKPDARTQAGDIVSIDIEEPQLDLLDDVL
chain 4: MVNSHGIRYIRLKQVFNRALDQSISKLQSWDKVSSCFPQYVNSKQGAINVANCQRQLTEFWTELCQREFKEIMEERNVEQKLNELDELILEAKERYTDRDQDEVNKGPAIDELSSKELVECHLYSQRMHAIHEIDERLAKVNEMNDQLAQELKDLETQVEVEKNEIGKMYDEYLGSHTDQPANVLLVQSLNDMVLELKENY
notes: Nsl1, S. cerevisiae; Dsn1, S. cerevisiae; Mtw1, S. cerevisiae; Nnf1, S. cerevisiae; also called wild-type MIND; pGH46; copies: + + +
B1: binds [3].

B2: 2D-MIND complex (FLAG-Nsl1, S240D, S250D-Dsn1, Mtw1, Nnf1) (complex, S. cerevisiae)
chain 1: MSQGQSKKLDVTVEQLRSIYHQFHDILEEKTDLHLPKKEYDDDAVRREVQIQLQEFLLSAMTMASKSLEVVNADTVGKTVKQLIMESQEKYMEPFDLDLNEQVRKMYQEWEDETVKVAQLRQTGPAKINEVYNNSKDEYLAQLDGRIGVLQARMMQQQSADHDDSTDDADDHINWEHIKQDYVASLNELYQTQQDLPKVRYNVEKVKRLMDFLEED
chain 2: MSLEPTQTVSGTPPMLHQRTHKQVYPLRMETIPILESDSKATLQSNEPTQKDEEETEYFENKQSVSNLSPDLKFKRHKNKHIQGFPTLGERLDNLQDIKKAKRVENFNSSAPIADDNHSGDATANATANATANATANVNASAMPAPYMPYYYYYHPMNAPTPAMIPYPGSPMHSIMPNSSLQPFYSQPTAAGGPDMTTPQNISSSQQLLPAPQLFPYGSFHQQQLQQPHYIQRTRERKKDIGSQRGRRLDMLASQANGGSTIISPHKDIPEEDFYTVVGNASFGKNLQIRQLFNWCLMRSLHKLELKAKNQEEEGELEHLTKKSKLESTKAETDYVDPKRLAMVIIKEFVDDLKKDHIAIDWEDEEKYEDEDEEKILDNTENYDDTELRQLFQENDDDDDDDDEVDYSEIQRSRRKFSERRKALPKEPKKLLPNSKNVENTKNLSILTSKVNAIKNEVKEWAVTLDTSRPDLEWQELTSFSSQPLEPLSDTEEPDLAIADVETKLETKVDELRYQSHILNSHSLALNEITNSKVNKLNIETMRKISSETDDDHSQVINPQQLLKGLSLSFSKKLDL
chain 3: MSAPTMRSTSILTEHLGYPPISLVDDIINAVNEIMYKCTAAMEKYLLSKSKIGEEDYGEEIKSGVAKLESLLENSVDKNFDKLELYVLRNVLRIPEEYLDANVFRLENQKDLVIVDENELKKSEEKLREKVNDVELAFKKNEMLLKRVTKVKRLLFTIRGFKQKLNELLKCKDDVQLQKILESLKPIDDTMTLLTDSLRKLYVDSESTSSTEEVEALLQRLKTNGKQNNKDFRTRYIDIRTNNVLRKLGLLGDKEDEKQSAKPDARTQAGDIVSIDIEEPQLDLLDDVL
chain 4: MVNSHGIRYIRLKQVFNRALDQSISKLQSWDKVSSCFPQYVNSKQGAINVANCQRQLTEFWTELCQREFKEIMEERNVEQKLNELDELILEAKERYTDRDQDEVNKGPAIDELSSKELVECHLYSQRMHAIHEIDERLAKVNEMNDQLAQELKDLETQVEVEKNEIGKMYDEYLGSHTDQPANVLLVQSLNDMVLELKENY
notes: Nsl1, S. cerevisiae; Dsn1, S. cerevisiae, with two phosphomimetic substitutions; Mtw1, S. cerevisiae; Nnf1, S. cerevisiae; also called phosphomimetic MIND; pGH62; copies: + + +
B2: binds [4].
